In the DeepSol protein solubility set:

test: soluble on expression in E. coli; label from the status in PepcDB or PDB records

Sequence | soluble on expression in E. coli
MGYTKAEILKALKGENVKFLRLQITDILGVVKNVEVPESQFEKALDGEIMFDGSSIEGFTRIEESDMLLRPDYNTFVILPDLVEDPKRGRVARLICDVYYPDGRPFEGDPRYVLKRQIERLKKLGFDNLYAGPEPEFFLFLRTPEGLPTTETHDRAGYFDLAPIDKGEEARRDMVNALVAMGFEIEAAHHEVAPGQHEIDFKYADALTTADNIATFKWVVKRIALNHGLHATFLPKPIRGINGSGMHTHLSLFKDGENAFYDPNAEYQLSQTALHFIAGLLEHAAGMVAVTNPLVNSYKRLTPGYEAPTNIAWSASNRSAMIRIPARRGVGTRAELRMPDPSCNPYLALAVMAAAGADGIERKLLPPPPIQRNIYQMTVRERRKHKIRELPGTLREALEALRKDPVIREALGEHVYTHFLQAKQMEWDDYRVTVHQWELDRYLATY | soluble
MEMSLEEFKTMFKTVMKKEFEDELHRITEPGKSKMAIERYIQGINLLDKKCILDNDENHNVLFKFAPIDQDFAHSSTNLSTPSPLEEESARENNHEAQELDITERIARMNLIGGSEFQMQYSSFLTAVSTKPSTDASLKKEARRLAEIWWAKNLRFFPQTMYVLQKLDQKNPDGFNYTDFEEEVQKVIPRSWIQNHHSFTLLSLLNEESLYVKFNLIMPSDSENMNRVKVNQVIKFLGFHEIGDCEFSMIYQYVSSKSASESTYSIHKFMCEDFPGWETQYNNEKKSMDRIFEIIIQEQKLFWTEYDYHTYKRHAYKIAVPMVFSLNIVDKAVGVRSDAR | not soluble
MNIPQLTALCLRYHGVLLDASEEVVHVAVVDAPSHELLDALHFATTKRIEITCWTRQQMEGHASRTQQTLPVAVQEKHQPKAELLTRTLQSALEQRASDIHIEPADNAYRIRLRIDGVLHPLPDVSPDAGVALTARLKVLGNLDIAEHRLPQDGQFTVELAGNAVSFRIATLPCRGGEKVVLRLLQQVGQALDVNTLGMQPLQLADFAHALQQPQGLVLVTGPTGSGKTVTLYSALQKLNTADINICSVEDPVEIPIAGLNQTQIHPRAGLTFQGVLRALLRQDPDVIMIGEIRDGETAEIAIKAAQTGHLVLSTLHTNSTCETLVRLQQMGVARWMLSSALTLVIAQRLVRKLCPHCRRQQGEPIHIPDNVWPSPLPHWQAPGCVHCYHGFYGRTALFEVLPITPVIRQLISANTDVESLETHARQAGMRTLFENGCLAVEQGLTTFEELIRVLGMPHGE | soluble
MGKKSKNSVTTQTQWKRLKIDFVERKIDKDDVFFEEVSDEQLNDKIIVPLFTSSGTFEETIGILIQWQEYLKSRSDRLSEVFLSKVNSYFEHIRITLALPFDESKWAELETLTETDLNKTPIFINNIRTSTVSVILHLENLIKSFHLNVKSAEIFPFDSDSFGLPPINCRKILNPLLWMKAGIEKLIQNNCQCDQPPIVPLITLLDLAPKEGHFQELAIASFFLENTAHKLDYSCSDDEKKFLDQIKMKFGTTKVDKLTMVLPDILMAYSEELVERVMPVSYFIPFELFRMMLLSWQPKVLNLRLRTEACSSIEDAARIEWDDEDVFTSTTLFNCPLFDRCEPVCLGDEEIILNCKLIVDCSGSRLFDPMFNEGNVYTAGRDFLVLFPMQTIILKRIVPLKVGSSVKVQLKKQIDYIVNTFFFNASEHQDRVVNYELTFTNSTDVQMSAVKRCIPQVANGRQIGVNLNVEQETRDLFTDHGNSCPGRHMFASFFDSENQVIVDLKVVLAN | not soluble
MGSDKIHHHHHHMIQGKKFISPGTWFSMIYPSDWSEFEDGEGSFLFYNPEHWTGNFRISAYKEDAAAPGGMNYGKDSVRQELKENPSASLVKVGHLECAYSKEMFEEEGIYYTSHLWVTGIDNVAFECSFTVPKGEHVDEAEKIISSLEIRKDGQKYPAEIIPIRLSEIYQVNEAYEWVTDTVKTQLKKDFQGLEEDLQKIQDVIDSGVLSPKKKEPWLAFGIAICTILANEVEGMEWMTLVDGNREVPVLRYEGSEQLIDPMKLLWSRVRAGETCEVAEAYKQALIH | not soluble
SKDPAFTALLTTQLQVQREIVNKHNELRKAVSPPASNMLKMEWSREVTTNAQRWANKCTLQHSDPEDRKTSTRCGENLYMSSDPTSWSSAIQSWYDEILDFVYGVGPKSPNAVVGHYTQLVWYSTYQVGCGIAYCPNQDSLKYYYVCQYCPAGNNMNRKNTPYQQGTPCAGCPDDCDKGLCTNSCQYQDLLSNCDSLKNTAGCEHELLKEKCKATCLCENKIY | soluble
MTLKLIGAGFGRTGTWSTFAALNRLGLPCYHMQEVIMNKANKGHLDFWRKVANSPPGSQHDWNRVFANYTATVDNPGCCVWKELLAAYPDAKVLLTLHPRGAEAWYESTIDTIYFTENVWQFKILEWLTPFGWKFGDMSRKLIWGRTLDGVMNDRAKAVARYNTYVEQVKAAVPPHKLLVYKVTEGWAPLCDFLGLEHHHHHH | soluble
MGSDKIHHHHHHMKKIFKSIANSANCLADVLFPPHCLVCDSGLVLGETDVCSTCLSTLPTVNDDYSPDSLYLRLSIELRPSFVWAYLLFDSKNKTQKILHAIKYGDAPDIAVRLAMIWTDRIRESLVEADVDLIMPIPLHKSKLRKRGYNQATKIAEGIQKIVPIPIEESVLIRKRNLFIQAKSKRAKRFENVKQVYAIQHIEKVAGKHILLVDDVLTTGATLEACGLLLKNAGAAKVSVALLAMVAD | not soluble
MVEKEEAGGGISEEEAAQYDRQIRLWGLEAQKRLRASRVLLVGLKGLGAEIAKNLILAGVKGLTMLDHEQVTPEDPGAQFLIRTGSVGRNRAEASLERAQNLNPMVDVKVDTEDIEKKPESFFTQFDAVCLTCCSRDVIVKVDQICHKNSIKFFTGDVFGYHGYTFANLGEHEFVEEKTKVAKVSQGVEDGPDTKRAKLDSSETTMVKKKVVFCPVKEALEVDWSSEKAKAALKRTTSDYFLLQVLLKFRTDKGRDPSSDTYEEDSELLLQIRNDVLDSLGISPDLLPEDFVRYCFSEMAPVCAVVGGILAQEIVKALSQRDPPHNNFFFFDGMKGNGIVECLGPK | soluble
MGKYFGTDGVRGVANQELTPELAFKLGRYGGYVLAHNKGEKHPRVLVGRDTRVSGEMLESALIAGLISIGAEVMRLGIISTPGVAYLTRDMGAELGVMISASHNPVADNGIKFFGSDGFKLSDEQENEIEALLDQENPELPRPVGNDIVHYSDYFEGAQKYLSYLKSTVDVNFEGLKIALDGANGSTSSLAPFLFGDLEADTETIGCSPDGYNINEKCGSTHPEKLAEKVVETESDFGLAFDGDGDRIIAVDENGQIVDGDQIMFIIGQEMHKNQELNNDMIVSTVMSNLGFYKALEQEGIKSNKTKVGDRYVVEEMRRGNYNLGGEQSGHIVMMDYNTTGDGLLTGIQLASVIKMTGKSLSELAGQMKKYPQSLINVRVTDKYRVEENVDVKEVMTKVEVEMNGEGRILVRPSGTEPLVRVMVEAATDEDAERFAQQIADVVQDKMGLDK | not soluble
MEENMNIKQLKSKTMLGTVALVSAFSFASTNADANTYNYAVDVDYLASAEEIAQAHPASNTFPLGQCTWGVKEMATWAGNWWGNGGDWAASAASADYTVGTQPRVGSIVCWTDGSYGHVAYVTAVDPVTNKIQVLESNYAGHQWIDNYRGWFDPQNTVTPGVVSYIYPNLEHHHHHH | not soluble
MGSDKIHHHHHHMHHRSSPLSRCLNRPSLSENRLVERACLSVGRRPSSSRSRRQHAGRLALLLGTLAPAVVLAQAAPDTVAMPQGINLGGTSFMDGFGSTTPGWTVLEYLRYYDLDAIKNARGDNSPAFRDPQVGVSALLTQLIYVTPYSLGRGSLSFNTIIPLVNYDTSFAADSPVRLRSNGFGMGDISFGPALQMPPVMRDGRVFFFQRFALDLFAPVGKFDRDIAINQGTGFWSIAPQWAFTVQPTDNWEISARINYLYNFRTDRAGGVPPIPGFRFRNGQAGDAVWVNFASSVKVSEQLRVGVNGYFLQQLKDNRTNGERVADSKRMQLYLGPGLSWRVDAKNLFNLNLYIPLDVENSVAGNSVNLMYVHSL | not soluble
MSLKKQLVKTDGHNQLDQPNTKALQLKKKQFNSGVRVTSEISFLREVIAHHPGIETERVIDNQTFGSAMYLERAQKEHQLFIKILRQHGTKVHYLQDLLLEALSAADPNVRQDFIKNFLLESGIKSVSTFEACLNFFRSLDSLVDVIKVMFGGIKVSDVPPITPQRFADIHVSNSPFLIKPLSFSLYPHKFFNTLGTGVALFVTNDSELKRHSLVYEYIMRFHPRFDGVKLYTNRDFKNCLINSSDIIQISNEILLIGISHDTDVLGIESLARNLLSDHTNPIKQIIAINIHKFGAKTNLNKLIAMVDVDKFIIARKVLQATEIFELTATAQRDVDGLAQIKFKPLKFNFGEIIEAIIDKQPRFVIIGGGDEVAERKELLDCGMGVLNLSPGEIVVFDRNHYTNNLLNELGLIIHKIPASELSRGPSGPLEMVCSLWREEGHHHHHH | soluble
GMIDEKFLIESNELVESSKIVMVGTNGENGYPNIKAMMRLKHDGLKKFWLSTNTSTRMVERLKKNNKICLYFVDDNKFAGLMLVGTIEILHDRASKEMLWTDGCEIYYPLGIDDPDYTALCFTAEWGNYYRHLKNITFKIDEIYNY | soluble
MKEEATTLPQQFIKKYRLLLGEEASDFFSALEQGSVKKGFRWNPLKPAGLDMVQTYHSEELQPAPYSNEGFLGTVNGKSFLHQAGYEYSQEPSAMIVGTAAAAKPGEKVLDLCAAPGGKSTQLAAQMKGKGLLVTNEIFPKRAKILSENIERWGVSNAIVTNHAPAELVPHFSGFFDRIVVDAPCSGEGMFRKDPNAIKEWTEESPLYCQKRQQEILSSAIKMLKNKGQLIYSTCTFAPEENEEIISWLVENYPVTIEEIPLTQSVSSGRSEWGSVAGLEKTIRIWPHKDQGEGHFVAKLTFHGQNQMHKEKKTRKKSKVQMTKEQEKLWTEFSNDFHYEATGRLLVFNDHLWEVPELAPSLDGLKVVRTGLHLGDFKKNRFEPSYALALATKKIENIPCLPITQKEWQSYTAGETFQRDGNQGWVLLVLDKIPVGFGKQVKGTVKNFFPKGLRFH | soluble
MPEEIATLAGGCFWCTEAAFKLLRGVLEVVPGYAGGHVPHPTYEEVCTGTTGHREAVQVRFDPGVLPYADLLRYFFAVHDPTSEDRQGPDVGPQYSPAIFYHSEEQKRVAEAVMRELAPLYPKPIATKLLPFTTFYPAEAYHRDYFARHPEAPYCRFVIAPKLEKARKAFKSLLRP | soluble
MGSSHHHHHHGGTGENLYFQGGSGTNVPLTQRITAFNNYVGNASNRDRVMSVVQFGAMALAAPAAAAGCPELSAHLSTILHGAAHYRTVTRFSQWLVVAPALTPSGIKSAIASHPNLLVGICKTISTAFFTVFLIGEELVLASKCNMLDPVLGKRFNRIRFVFLFWSNIARLVMSYLLLKSSKYDAVKDNQNEEKAKDHRRKVLGVADGVLQSMFCYTLLKSSAPAGPKYLSAALRSGKAVDIITSLAPPLLVVPSTPQGMLGLAASVPGFMMSVL | not soluble
MSNYEKVYIGTYTNGESRGIYSFNIISDSRKTTAPILSCEIENPTYLTFNMNNKTAYSVIKSGNLGGAASFYVDDRNNHLELLNCKFGYENPPERFSGKQPCYVSLDKTNSYLFSVNYHTSRVDVFPIRNDGSIDTVSSFVIHEGFGPNKERQETSHVHCAVTTPLNDFLCVVDLGTDKIVLYRFDDGILCRFNEFKLKPGCGPRHIIFHPNGKIAYIATELSSEVIVLKYSPLDGSFEELQYVSCLPTDYTGKNGSAAIHISRNSNYLYVSNRGHNSISCFHVDNSTGLLTLNSNTSTYGLSPRDFDLSSSGNLLIAANQDSSNLTIFSVDQVSGNLSKITSDIYVPNPVCVKFYHDKLEHHHHHH | not soluble
